Laboratory results published in US20250262210A1 (TRUSTEES OF COLUMBIA UNIVERSITY IN THE CITY OF NEW YORK, published 2025).

T1: LZTR1 R810W-FLAG (human, UniProt Q8N653 1-840)
T1 construct: Stably expressed in U87 cells by lentivirus; also called LZTR1-FLAG-R810W; LZTR1 RW; not shown: FLAG tag
T1 sequence (looked up): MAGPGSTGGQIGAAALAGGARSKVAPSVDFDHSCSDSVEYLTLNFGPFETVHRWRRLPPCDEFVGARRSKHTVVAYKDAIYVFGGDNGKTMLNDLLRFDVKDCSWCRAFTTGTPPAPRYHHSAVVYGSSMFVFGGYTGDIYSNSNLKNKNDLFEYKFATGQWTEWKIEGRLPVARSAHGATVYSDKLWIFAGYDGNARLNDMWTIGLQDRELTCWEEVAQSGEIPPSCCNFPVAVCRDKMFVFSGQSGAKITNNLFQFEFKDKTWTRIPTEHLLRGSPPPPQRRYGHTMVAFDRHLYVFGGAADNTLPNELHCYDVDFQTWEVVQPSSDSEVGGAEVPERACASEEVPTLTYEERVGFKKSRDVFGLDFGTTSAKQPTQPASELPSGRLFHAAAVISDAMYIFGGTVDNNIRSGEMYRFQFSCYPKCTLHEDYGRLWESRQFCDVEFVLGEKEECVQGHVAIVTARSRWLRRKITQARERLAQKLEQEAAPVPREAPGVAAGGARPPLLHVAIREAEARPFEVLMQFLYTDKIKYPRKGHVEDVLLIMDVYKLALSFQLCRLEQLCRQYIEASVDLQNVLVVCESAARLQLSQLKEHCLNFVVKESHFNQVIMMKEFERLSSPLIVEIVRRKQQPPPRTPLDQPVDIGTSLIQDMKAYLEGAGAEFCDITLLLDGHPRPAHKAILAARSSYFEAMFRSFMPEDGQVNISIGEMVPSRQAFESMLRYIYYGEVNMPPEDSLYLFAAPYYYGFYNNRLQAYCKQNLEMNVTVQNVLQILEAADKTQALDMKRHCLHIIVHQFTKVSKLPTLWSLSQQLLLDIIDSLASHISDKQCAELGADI

T2: LZTR1-FLAG (human, UniProt Q8N653 1-840)
T2 construct: Expressed in HEK 293T, HeLa or U87 cells; used as cell lysate; also called LZTR1 wild type-FLAG; LZTR1 WT; not shown: FLAG tag at the C-terminus
T2 sequence (looked up): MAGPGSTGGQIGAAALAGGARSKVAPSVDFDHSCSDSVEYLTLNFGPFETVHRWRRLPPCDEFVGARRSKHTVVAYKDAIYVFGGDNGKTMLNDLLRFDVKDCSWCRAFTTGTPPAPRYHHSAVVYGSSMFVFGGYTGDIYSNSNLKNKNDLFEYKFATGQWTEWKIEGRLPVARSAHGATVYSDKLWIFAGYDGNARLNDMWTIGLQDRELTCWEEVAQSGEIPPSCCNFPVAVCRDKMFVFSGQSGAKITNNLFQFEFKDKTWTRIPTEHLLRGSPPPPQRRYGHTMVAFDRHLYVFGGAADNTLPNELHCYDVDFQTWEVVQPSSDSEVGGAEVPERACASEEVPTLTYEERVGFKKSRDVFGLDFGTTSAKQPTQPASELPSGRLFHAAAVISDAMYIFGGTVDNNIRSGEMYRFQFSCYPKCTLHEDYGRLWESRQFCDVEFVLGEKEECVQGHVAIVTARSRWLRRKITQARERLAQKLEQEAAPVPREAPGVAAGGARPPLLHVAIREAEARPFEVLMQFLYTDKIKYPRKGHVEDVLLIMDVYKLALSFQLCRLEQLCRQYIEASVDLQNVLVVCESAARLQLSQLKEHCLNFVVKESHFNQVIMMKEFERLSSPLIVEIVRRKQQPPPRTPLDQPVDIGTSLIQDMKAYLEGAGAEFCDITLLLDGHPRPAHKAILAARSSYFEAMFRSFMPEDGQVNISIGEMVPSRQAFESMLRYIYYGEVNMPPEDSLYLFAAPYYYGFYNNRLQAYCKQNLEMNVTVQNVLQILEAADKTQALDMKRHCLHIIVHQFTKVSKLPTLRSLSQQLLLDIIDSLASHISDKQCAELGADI


Key:
LZTR1 R810W-FLAG = target: T1, LZTR1 R810W-FLAG; test: IP/MS, LZTR1 R810W-FLAG, U87
Method in brief: (§1)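 Read-out: spectral counts from LC-MS/MS (Orbitrap Fusion) after MaxQuant identification. Variable modifications were Met oxidation, protein N-terminal acetylation and N/Q deamidation.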

LZTR1-FLAG = target: T2, LZTR1-FLAG; test: IP/MS, LZTR1 wild type-FLAG, U87
Method in brief: as §1

Binder | binding result (LZTR1 R810W-FLAG) | binding result (LZTR1-FLAG)
IFT57 (other, human, UniProt Q9NWB7 1-429, looked up) MTAALAVVTTSGLEDGVPRSRGEGTGEVVLERGPGAAYHMFVVMEDLVEKLKLLRYEEEFLRKSNLKAPSRHYFALPTNPGEQFYMFCTLAAWLINKAGRPFEQPQEYDDPNATISNILSELRSFGRTADFPPSKLKSGYGEHVCYVLDCFAEEALKYIGFTWKRPIYPVEELEEESVAEDDAELTLNKVDEEFVEEETDNEENFIDLNVLKAQTYHLDMNETAKQEDILESTTDAAEWSLEVERVLPQLKVTIRTDNKDWRIHVDQMHQHRSGIESALKETKGFLDKLHNEITRTLEKISSREKYINNQLENLVQEYRAAQAQLSEAKERYQQGNGGVTERTRLLSEVMEELEKVKQEMEEKGSSMTDGAPLVKIKQSLTKLKQETVEMDIRIGIVEHTLLQSKLKEKSNMTRNMHATVIPEPATGFY | binds | binds
KLHL11 (other, human, UniProt Q9NVR0 16-708, looked up) ASLQVLEMESMETAAAGSAGLAAEVRGSGTVDFGPGPGISAMEASGGDPGPEAEDFECSSHCSELSWRQNEQRRQGLFCDITLCFGGAGGREFRAHRSVLAAATEYFTPLLSGQFSESRSGRVEMRKWSSEPGPEPDTVEAVIEYMYTGRIRVSTGSVHEVLELADRFLLIRLKEFCGEFLKKKLHLSNCVAIHSLAHMYTLSQLALKAADMIRRNFHKVIQDEEFYTLPFHLIRDWLSDLEITVDSEEVLFETVLKWVQRNAEERERYFEELFKLLRLSQMKPTYLTRHVKPERLVANNEVCVKLVADAVERHALRAENIQSGTCQHPTSHVSLLPRYGQNMDVIMVIGGVSEGGDYLSECVGYFVDEDRWVNLPHIHNHLDGHAVAVTESYVYVAGSMEPGFAKTVERYNPNLNTWEHVCSLMTRKHSFGLTEVKGKLYSIGGHGNFSPGFKDVTVYNPELDKWHNLESAPKILRDVKALAIEDRFVYIAARTPVDRDTEDGLKAVITCYDTETRQWQDVESLPLIDNYCFFQMSVVNSNFYQTASCCPKSYCLENEEAVRKIASQVSDEILESLPPEVLSIEGAAICYYKDDVFIIGGWKNSDDIDKQYRKEAYRYCAERKRWMLLPPMPQPRCRATACHVRIPYRYLHGTQRYPMPQNLMWQKDRIRQMQEIHRHALNMRRVPSSQIEC | binds | binds
MAEA (other, human, UniProt Q7L5Y9 1-396, looked up) MAVQESAAQLSMTLKVQEYPTLKVPYETLNKRFRAAQKNIDRETSHVTMVVAELEKTLSGCPAVDSVVSLLDGVVEKLSVLKRKAVESIQAEDESAKLCKRRIEHLKEHSSDQPAAASVWKRKRMDRMMVEHLLRCGYYNTAVKLARQSGIEDLVNIEMFLTAKEVEESLERRETATCLAWCHDNKSRLRKMKSCLEFSLRIQEFIELIRQNKRLDAVRHARKHFSQAEGSQLDEVRQAMGMLAFPPDTHISPYKDLLDPARWRMLIQQFRYDNYRLHQLGNNSVFTLTLQAGLSAIKTPQCYKEDGSSKSPDCPVCSRSLNKLAQPLPMAHCANSRLVCKISGDVMNENNPPMMLPNGYVYGYNSLLSIRQDDKVVCPRTKEVFHFSQAEKVYIM | binds | binds
IKBKB (other, human, UniProt O14920 1-756, looked up) MSWSPSLTTQTCGAWEMKERLGTGGFGNVIRWHNQETGEQIAIKQCRQELSPRNRERWCLEIQIMRRLTHPNVVAARDVPEGMQNLAPNDLPLLAMEYCQGGDLRKYLNQFENCCGLREGAILTLLSDIASALRYLHENRIIHRDLKPENIVLQQGEQRLIHKIIDLGYAKELDQGSLCTSFVGTLQYLAPELLEQQKYTVTVDYWSFGTLAFECITGFRPFLPNWQPVQWHSKVRQKSEVDIVVSEDLNGTVKFSSSLPYPNNLNSVLAERLEKWLQLMLMWHPRQRGTDPTYGPNGCFKALDDILNLKLVHILNMVTGTIHTYPVTEDESLQSLKARIQQDTGIPEEDQELLQEAGLALIPDKPATQCISDGKLNEGHTLDMDLVFLFDNSKITYETQISPRPQPESVSCILQEPKRNLAFFQLRKVWGQVWHSIQTLKEDCNRLQQGQRAAMMNLLRNNSCLSKMKNSMASMSQQLKAKLDFFKTSIQIDLEKYSEQTEFGITSDKLLLAWREMEQAVELCGRENEVKLLVERMMALQTDIVDLQRSPMGRKQGGTLDDLEEQARELYRRLREKPRDQRTEGDSQEMVRLLLQAIQSFEKKVRVIYTQLSKTVVCKQKALELLPKVEEVVSLMNEDEKTVVRLQEKRQKELWNLLKIACSKVRGPVSGSPDSMNASRLSQPGQLMSQPSTASNSLPEPAKKSEELVAEAHNLCTLLENAIQDTVREQDQSFTALDWSWLQTEEEEHSCLEQAS | binds | binds
KLHDC10 (other, human, UniProt Q6PID8 1-442, looked up) MSAAQGWDRNRRRGGGAAGAGGGGSGAGGGSGGSGGRGTGQLNRFVQLSGRPHLPGKKKIRWDPVRRRFIQSCPIIRIPNRFLRGHRPPPARSGHRCVADNTNLYVFGGYNPDYDESGGPDNEDYPLFRELWRYHFATGVWHQMGTDGYMPRELASMSLVLHGNNLLVFGGTGIPFGESNGNDVHVCNVKYKRWALLSCRGKKPSRIYGQAMAIINGSLYVFGGTTGYIYSTDLHKLDLNTREWTQLKPNNLSCDLPEERYRHEIAHDGQRIYILGGGTSWTAYSLNKIHAYNLETNAWEEIATKPHEKIGFPAARRCHSCVQIKNDVFICGGYNGEVILGDIWKLNLQTFQWVKLPATMPEPVYFHCAAVTPAGCMYIHGGVVNIHENKRTGSLFKIWLVVPSLLELAWEKLLAAFPNLANLSRTQLLHLGLTQGLIERLK | binds | binds
KLHL21 (other, human, UniProt Q9UJP4 1-597, looked up) MERPAPLAVLPFSDPAHALSLLRGLSQLRAERKFLDVTLEAAGGRDFPAHRAVLAAASPYFRAMFAGQLRESRAERVRLHGVPPDMLQLLLDFSYTGRVAVSGDNAEPLLRAADLLQFPAVKEACGAFLQQQLDLANCLDMQDFAEAFSCSGLASAAQRFILRHVGELGAEQLERLPLARLLRYLRDDGLCVPKEEAAYQLALRWVRADPPRRAAHWPQLLEAVRLPFVRRFYLLAHVEAEPLVARCPPCLRLLREARDFQAARYDRHDRGPCPRMRPRPSTGLAEILVLVGGCDQDCDELVTVDCYNPQTGQWRYLAEFPDHLGGGYSIVALGNDIYVTGGSDGSRLYDCVWRYNSSVNEWAEVAPMLKAREYHSSSVLDGLLYVVAADSTERYDHTTDSWEALQPMTYPMDNCSTTACRGRLYAIGSLAGKETMVMQCYDPDTDLWSLVDCGQLPPWSFAPKTATLNGLMYFVRDDSAEVDVYNPTRNEWDKIPSMNQVHVGGSLAVLGGKLYVSGGYDNTFELSDVVEAYDPETRAWSVVGRLPEPTFWHGSVSIFRQFMPQTFSGGRGFELDSGSDDMDPGRPRPPRDPDELH | binds | binds
KLHL26 (other, human, UniProt Q53HC5 2-615, looked up) AESGGSSGGAGGGGAFGAGPGPERPNSTADKNGALKCTFSAPSHSTSLLQGLATLRAQGQLLDVVLTINREAFPAHKVVLAACSDYFRAMFTGGMREASQDVIELKGVSARGLRHIIDFAYSAEVTLDLDCVQDVLGAAVFLQMLPVVELCEEFLKAAMSVETCLNIGQMATTFSLASLRESVDAFTFRHFLQIAEEEDFLRLPLERLVFFLQSNRLQSCAEIDLFRAAVRWLQHDPARRPRASHVLCHIRFPLMQSSELVDSVQTLDIMVEDVLCRQYLLEAFNYQVLPFRQHEMQSPRTAVRSDVPSLVTFGGTPYTDSDRSVSSKVYQLPEPGARHFRELTEMEVGCSHTCVAVLDNFVYVAGGQHLQYRSGEGAVDACYRYDPHLNRWLRLQAMQESRIQFQLNVLCGMVYATGGRNRAGSLASVERYCPRRNEWGYACSLKRRTWGHAGAASGGRLYISGGYGISVEDKKALHCYDPVADQWEFKAPMSEPRVLHAMVGAGGRIYALGGRMDHVDRCFDVLAVEYYVPETDQWTSVSPMRAGQSEAGCCLLERKIYIVGGYNWRLNNVTGIVQVYNTDTDEWERDLHFPESFAGIACAPVLLPRAGTRR | binds | binds
